{"source": "paper PMC4806843", "about": "“Structural and Functional Analysis of Calcium Ion Mediated Binding of 5-Lipoxygenase to Nanodiscs” (PLoS ONE, 2016)", "proteins": {"B1": {"name": "human 5-lipoxygenase (enzyme, UniProt P09917 1-674, looked up)", "chain": "MPSYTVTVATGSQWFAGTDDYIYLSLVGSAGCSEKHLLDKPFYNDFERGAVDSYDVTVDEELGEIQLVRIEKRKYWLNDDWYLKYITLKTPHGDYIEFPCYRWITGDVEVVLRDGRAKLARDDQIHILKQHRRKELETRQKQYRWMEWNPGFPLSIDAKCHKDLPRDIQFDSEKGVDFVLNYSKAMENLFINRFMHMFQSSWNDFADFEKIFVKISNTISERVMNHWQEDLMFGYQFLNGCNPVLIRRCTELPEKLPVTTEMVECSLERQLSLEQEVQQGNIFIVDFELLDGIDANKTDPCTLQFLAAPICLLYKNLANKIVPIAIQLNQIPGDENPIFLPSDAKYDWLLAKIWVRSSDFHVHQTITHLLRTHLVSEVFGIAMYRQLPAVHPIFKLLVAHVRFTIAINTKAREQLICECGLFDKANATGGGGHVQMVQRAMKDLTYASLCFPEAIKARGMESKEDIPYYFYRDDGLLVWEAIRTFTAEVVDIYYEGDQVVEEDPELQDFVNDVYVYGMRGRKSSGFPKSVKSREQLSEYLTVVIFTASAQHAAVNFGQYDWCSWIPNAPPTMRAPPPTAKGVVTIEQIVDTLPDRGRSCWHLGAVWALSQFQENELFLGMYPEEHFIEKPVKEAMARFRKNLEAIVSVIAERNKKKQLPYYYLSPDRIPNSVAI", "notes": "5-lipoxygenase (5LO), human, recombinant from pT3-5LO; 78 kDa; The preparation holds monomer and dimer, which were separated by SEC; also called 5LO; monomeric 5LO; source: E. coli BL21-(DE3) transformed with pT3-5LO, purified (ammonium sulfate precipitation, ATP agarose, gel filtration)"}}, "target": "the molecule itself", "assay": "SEC; size exclusion chromatography of the purified 5LO preparation; standards aldolase (158 kDa) and conalbumin (75 kDa); two peaks, dimer and monomer", "data": [{"protein": "B1", "values": [{"measurement": "stoichiometry N", "result": 2}]}]}
